Data as given in patent publication US10076576B2, “Minimally toxic prodrugs” (priority 2012, dated 2018).
Where “and” joins values, the source holds several entries; their conditions need not be identical. Equal values may be shown once. Read-outs that look alike come from different tables or passages of the source.

Key:
[1] = test system: MX-1 mammary carcinoma human xenografts; assay: Efficacy after repeated iv bolus, MX-1 xenograft; format: in vivo, NMRI nude mice; settings: day 29
Method: FIG. 3. […] Results represent the mean body weight and tumor volume evolution±SEM (n=4).
The anti-tumor activity of doxorubicin and PhAc-ALGP-Dox was tested in models of athymic mice (nude/nude NMRI) carrying ectopic xenografts of human LS-174T colon carcinoma or MX-1 mammary carcinoma.
LS174T and MX-1 tumors were established by a subcutaneous implantation of cells (3×10^6 and 10^7 cells injected respectively) in the right flank of 6 weeks old female NMRI nude mice (Harlan). […] The day of the first injection animals were randomly assigned to groups of 4 animals. […] Compounds were delivered by bolus intravenous injection (i.v.) in the lateral tail vein at 10 μl/g. During the course of the experiment, clinical signs, body weight and tumor volume were controlled twice a week. Results are presented as the evolution of mean tumor volume as a function of time. Optimal T/C (ratio of mean tumor volume of treated versus control mice) values were used as a measure of treatment efficacy.

[2] = test system: mouse embryonic fibroblasts (MEF); assay: In vitro cytotoxicity on control fibroblasts (neutral red uptake); format: cell-based; settings: 48 h
Method: FIG. 5. In vitro cellular toxicity of PhAc-ALGP-Dox and Doxorubicin on Cor.At® cells (mouse embryonic stem cell derived cardiomyocytes). As non-specific control, the test was also performed on inactivated mouse embryonic fibroblasts (MEF). Cells were cultured for 48 h in the presence of drugs and a neutral red uptake test was performed to determine cell viability. Results represent the cytotoxicity curves. The IC50 values were calculated from the cytotoxicity curves using the Prism GraphPad software 5.0.
The in vitro cardiotoxicity test was carried out in a relevant and predictive in vitro model for cardiac safety screening in early lead optimization using mouse embryonic stem cell derived cardiomyocytes (Cor.At®, Axiogenesis (Germany)). Cor.At® cardiomyocytes provide a standardized, homogenous and reproducible cell system for the in vitro classification of a compound's cardio-cytotoxic potential. After incubation with test compounds, the neutral red uptake test was used to determine effects which directly affect the viability and integrity of cardiac cells when compared to a non-specific reference cell type, e.g. mouse fibroblasts (MEF).

[3] = Method: FIG. 7. Toxicity study of PhAc-ALGP-Dox after single and multiple intraperitoneal (ip) injections in OF-1 mice. Animals were treated with PhAc-ALGP-Dox with different treatment schedules: at 56 μmol/kg 5× (Q1D5 -*-); at 28 μmol/kg 10× (2Q1D5 -▪-); at 560 μmol/kg 1× (-□-); at 112 μmol/kg 5× (Q1D5 -▴-); at 56 μmol/kg 10× (2Q1D5 -×-).
PhAc-ALGP-Dox was dissolved in saline and administered by single or multiple intraperitoneal (ip) injections […] of OF-1 mice (10 μl/g). PhAc-ALGP-Dox was administered at similar cumulative doses of 280 and 560 μmol/kg following different injections schedules: single ip injection; 5 consecutive daily ip injections at 56 and 112 μmol/kg or twice a day for five consecutive days at the doses of 28 and 56 μmol/kg. The in vivo toxicity was evaluated by monitoring the body weight.

[4] = test system: MX-1 mammary carcinoma human xenografts; assay: Efficacy after repeated ip injections (2Q1D5×2W), MX-1 xenograft; format: in vivo, NMRI nude mice; settings: for TGI [% (day)]: day 35; for body weight loss (in words): Doxorubicin 1 μmol/kg (MTD), PhAc-ALGP-Dox 50 μmol/kg, ip 2Q1D5×2W
Method: FIG. 10. […] Drugs or controls were administered by the i.p. route twice a day for five consecutive days (arrows). Treatment was repeated with 72 hours interval between two cycles.

[5] = test system: UZLX-STS3 dedifferentiated liposarcoma xenograft
Text: FIG. 16. Effect of PhAc-ALGP on a UZLX-STS3 xenograft model. UZLX-STS3 is a tissue xenograft derived from a patient diagnosed with dedifferentiated liposarcoma (DDLPS).
A total of 24 mice were bilaterally transplanted with UZLX-STS3 (tissue xenografts of passage 10). Animals were randomly assigned to three different groups: a control group (saline; -●-); A PhAc-ALGP-doxorubicin group (cumulative dose 1.20 mmol/kg; -▪-) and a doxorubicin group (cumulative dose 0.03 mmol/kg; -▴-). The drugs were administered intraperitoneally during 7 days by continuous release via an Alzet® osmotic pump, with delivery rate of 0.5 μl/h over 7 days. The experiment lasted 21 days (7 days of treatment+14 days of observation). Tumor volume and mouse body weight were evaluated at baseline and subsequently three times per week until the end of each experiment. After 21 days mice were sacrificed. Tumor volume is recorded 3× weekly by 3-dimensional caliper measurement. Data are presented as the average of the relative tumor volumes per group±standard deviation.
The comparison between the tumor volumes on day zero and the volumes on the last day of the experiments was done by Wilcoxon's matched paired test. The comparisons between different groups were performed using the Mann-Whitney U test (relative tumor volumes, histologic assessment). […] The […] software (StatSoft, version 12.0) was used for all the calculations.
FIG. 18. Data are presented as the average of the white blood cell count of mice in every group±standard deviation. The dashed lines mark the reference values for nu/nu NMRI mouse strain. PhAc-ALGP-doxorubicin (-▪-); Dox (-▴-); and saline (-●-). Total white blood cell count was determined using the CELL-DYN 3500 multiparameter automated hematology analyzer with optimization for murine blood parameters (Abott Diagnostics, Division, Ill., USA)
FIG. 19. Data are presented as the average of the neutrophil count of mice in every group±standard deviation. The dashed lines mark the reference values for nu/nu NMRI mouse strain. PhAc-ALGP-doxorubicin (-▪-); Dox (-▴-); and saline (-●-). Neutrophil count was determined using the CELL-DYN 3500 multiparameter automated hematology analyzer with optimization for murine blood parameters (Abott Diagnostics, Division, Ill., USA)

in vivo = settings: female, OF-1, mouse, ip, 92 umol/kg
Method: Time evolution of blood concentration of PhAc-ALGP-Dox and its metabolites (A) or of Doxorubicin (B) after intraperitoneal injection to OF-1 female wild type mice at the equimolar dose of 92 μmol/kg. Results represent the mean concentration±SD (n=3).
Pharmacokinetic tissue distribution studies were performed using OF-1 mice. Doxorubicin and PhAc-ALGP-Dox were dissolved in saline at the dose of 9.2 mM and administered to mice by intraperitoneal route (10 μL/g, 6 mice per group). At different time points after drug administration (5 min, 30 min, 1 h, 4 h, and 24 h), blood samples were collected from the lateral tail vein of three mice using EDTA-coated microtubes (Starsted). After 24 h, 3 mice per group were sacrificed by cervical dislocation and hearts were collected. They were incised and rinsed carefully in phosphate buffer saline (to eliminate blood in the cardiac cavities), dried on paper and frozen in liquid nitrogen. They were stored until analysis. The hearts were homogenized with an Ultraturrax homogenizer in 1.5 mL water. The protein concentration was measured using the microBCA protein assay (Pierce). The drug tissue quantification was made by HPLC after extraction: 150 μL of acetonitrile was added to the 50 μL samples. Samples were vortexed and centrifuged for 10 min at 13 000 rpm at room temperature. Supernatant was collected. Samples were buffered by addition of 200 mM formiate buffer pH 4.5 (1 V sample supernatant+3 V buffer) before HPLC analysis (fluo detection ex=235 nm em=560 nm).

[6] = Pharmacokinetics and heart tissue quantification after single iv bolus
Method: Time evolution of plasma concentration (A, B) and of cardiac tissue concentration (C, D) of Doxorubicin or PhAc-ALGP-Dox and its metabolites after i.v. bolus injection to OF-1 female wild type mice at the dose of 86.2 μmol/kg. Results represent the mean concentration±SD (n=3).
Pharmacokinetic tissue distribution studies were performed using OF-1 mice. […] At different time points after drug administration (5 min, 30 min, 1 h, 4 h, 7 h, 16 h and 24 h) 3 mice per group were sacrificed by cervical dislocation and blood and heart tissue were collected. Hearts were incised and rinsed carefully in phosphate buffer saline (to eliminate blood in the cardiac cavities), dried on paper and frozen in liquid nitrogen. They were stored until analysis. Blood samples were centrifuged (10 min, 2000 g, 4° C.) to separate the plasma fraction, which was stored for analysis. The hearts were homogenized with an Ultraturrax homogenizer in 1.5 mL water. The protein concentration was measured using the microBCA protein assay (Pierce). The drug tissue quantification was made by HPLC after extraction: 150 μL of acetonitrile was added to the 50 μL samples. Samples were vortexed and centrifuged for 10 min at 13 000 rpm at room temperature. Supernatant was collected. Samples were buffered by addition of 200 mM formiate buffer pH 4.5 (1 V sample supernatant+3 V buffer) before HPLC analysis (fluo detection ex=235 nm em=560 nm).

Structure (SMILES): COc1cccc2c1C(=O)c1c(O)c3c(c(O)c1C2=O)C[C@@](O)(C(=O)CO)C[C@@H]3O[C@H]1C[C@H](N)[C@H](O)[C@H](C)O1 [Doxorubicin, reference compound]
- TGI [% (day)] ([1]; 8 μmol/kg iv day 0, 3, 6, 9): 65 (29) %
- viability of MEF ([2]; 0.2 μg/ml): 89%
- toxic effect on MEF (in words) ([2]; 20 μg/ml and 2 μg/ml): severe toxic effect
- maximum tolerated dose ([3]; OF-1, mouse, in vivo, ip): 3 µmol/kg
- TGI [% (day)] ([4]; 1 μmol/kg ip 2Q1D5×2W): 44% and 44 (35), n = 3%
- toxicity (in words) ([4]; 1.5 μmol/Kg ip 2Q1D5×2W): very toxic
- body weight loss (in words) [4]: No significant body weight loss
- relative tumor volume at day 21 ([5]; ip, 30 umol/kg): 246%
- AUC (in vivo): 70.3 µM·h
- drug plasma concentration eliminated in the first five minutes ([6]; i.v. bolus 86.2 μmol/kg): About 90%

Structure (SMILES): COc1cccc2c1C(=O)c1c(O)c3c(c(O)c1C2=O)CC(O)(C(=O)CO)CC3OC1CC(NC(=O)C2CCCN2C(=O)CNC(=O)C(CC(C)C)NC(=O)C(C)NC(=O)CP(=O)(O)O)C(O)C(C)O1 (stereo not drawn) [PhAc-ALGP-Dox, PhAc-ALGP-doxorubicin]
- TGI [% (day)] ([1]; 100 μmol/kg iv day 0, 3, 6, 9): 60 (29) %
- IC50 on MEF ([2]; up to 20 μg/ml): no IC50 is reached
- body weight loss (in words) ([3]; 56 μmol/kg, 10 ip injections (twice a day for five consecutive days)): No body weight loss
- maximum body weight loss ([3]; 112 μmol/kg, five consecutive daily ip injections, day 11): 22.5%
- toxicity (in words) ([3]; 560 μmol/kg single ip injection): very toxic
- body weight lost ([3]; 560 μmol/kg single ip injection, in one week): 25%
- body weight loss (in words) ([3]; cumulative dose 280 μmol/kg ip, whatever the injection schedule): no body weight loss
- times less toxic than doxorubicin ([3]; ip twice a day for five consecutive days): about 15 times
- TGI [% (day)] ([4]; 50 μmol/kg ip 2Q1D5×2W): 76% and 76 (35), n = 4%
- body weight loss (in words) [4]: No significant body weight loss
- neutrophil count (in words) ([5]; 21 days after administration at 40-times higher dose than free doxorubicin): unchanged netrophil count
- relative tumor volume at day 21 ([5]; cumulative dose 1.20 mmol/kg ip via osmotic pump over 7 days, day 0 = 100%): 105%
- total white blood cells and neutrophils (in words) ([5]; cumulative dose 1.20 mmol/kg, versus control or doxorubicin-treated animals): No major changes
- AUC (in vivo): 44.2 µM·h
- Dox heart AUC versus Dox administration (times lower) ([6]; equimolar 86.2 μmol/kg iv): 25 times
- plasma AUC of Doxorubicin after Doxorubicin versus after PhAc-ALGP-Dox (times higher) ([6]; equimolar 86.2 μmol/kg iv): 63 times
- drug plasma concentration eliminated in the first five minutes ([6]; i.v. bolus 86.2 μmol/kg): About 90%
- fraction hydrolysed into LGP-Dox, GP-Dox and Dox in plasma ([6]; i.v. bolus 86.2 μmol/kg): Less than 1%
- time after which metabolites were no longer detected in plasma ([6]; i.v. bolus 86.2 μmol/kg): 1 h
- Heart AUC of PhAc-ALGP-Dox ([6]; one i.v. bolus 86.2 μmol/kg): 23 pmol · h/mg protein
